Data reported in PMC7330677.

Tests used:
Human CXCR4 (human) = Human CXCR4 (human) (UniProt P61073)
CXCR4-FlAsH228 (human) = CXCR4-FlAsH228 (human) (UniProt P61073)

- EC50 of CXCL12 for Gi1 activation, one representative experiment of Fig. 1D (Human CXCR4 (human)): 3.3 nM
- EC50 of CXCL12 for Gi1 activation, one representative experiment of Fig. 1D (CXCR4-FlAsH228 (human)): 14.7 nM
Substance: Recombinant human CXCL12 (from UniProt P48061 22-93) (ligand)
